Columns and labels:
[1] = substrate: C#C[C@]1(O)CC[C@H]2[C@@H]3CCc4cc(O[C@@H]5O[C@H](C(=O)O)[C@@H](O)[C@H](O)[C@H]5O)ccc4[C@H]3CC[C@@]21C; assay: TP_TRANSPORTER: uptake in membrane vesicle from MRP3-expressing Sf9 cells; type: functional, cell membranes
[2] = substrate: [H][C@@]12CC[C@@](O)(C#C)[C@@]1(C)CC[C@]1([H])c3ccc(O[C@@H]4O[C@H](C(=O)O)[C@@H](O)[C@H](O)[C@H]4O)cc3CC[C@@]21[H]; assay: TP_TRANSPORTER: uptake in membrane vesicles from MRP2-expressing Sf9 cells; type: functional, cell membranes, Membrane vesicle

B1: Multidrug resistance associated protein (Homo sapiens), Q96QA9 (protein)
chain: MDALCGSGELGSKFWDSNLSVHTENPDLTPCFQNSLLAWVPCIYLWVALPCYLLYLRHHCRGYIILSHLSKLKMVLGVLLWCVSWADLFYSFHGLVHGRAPAPVFFVTPLVVGVTMLLATLLIQYERLQGVQSSGVLIIFWFLCVVCAIVPFRSKILLAKAEGEISDPFRFTTFYIHFALVLSALILACFREKPPFFSAKNVDPNPYPETSAGFLSRLFFWWFTKMAIYGYRHPLEEKDLWSLKEEDRSQMVVQQLLEAWRKQEKQTARHKASAAPGKNASGEDEVLLGARPRPRKPSFLKALLATFGSSFLISACFKLIQDLLSFINPQLLSILIRFISNPMAPSWWGFLVAGLMFLCSMMQSLILQHYYHYIFVTGVKFRTGIMGVIYRKALVITNSVKRASTVGEIVNLMSVDAQRFMDLAPFLNLLWSAPLQIILAIYFLWQNLGPSVLAGVAFMVLLIPLNGAVAVKMRAFQVKQMKLKDSRIKLMSEILNGIKVLKLYAWEPSFLKQVEGIRQGELQLLRTAAYLHTTTTFTWMCSPFLVTLITLWVYVYVDPNNVLDAEKAFVSVSLFNILRLPLNMLPQLISNLTQASVSLKRIQQFLSQEELDPQSVERKTISPGYAITIHSGTFTWAQDLPPTLHSLDIQVPKGALVAVVGPVGCGKSSLVSALLGEMEKLEGKVHMKGSVAYVPQQAWIQNCTLQENVLFGKALNPKRYQQTLEACALLADLEMLPGGDQTEIGEKGINLSGGQRQRVSLARAVYSDADIFLLDDPLSAVDSHVAKHIFDHVIGPEGVLAGKTRVLVTHGISFLPQTDFIIVLADGQVSEMGPYPALLQRNGSFANFLCNYAPDEDQGHLEDSWTALEGAEDKEALLIEDTLSNHTDLTDNDPVTYVVQKQFMRQLSALSSDGEGQGRPVPRRHLGPSEKVQVTEAKADGALTQEEKAAIGTVELSVFWDYAKAVGLCTTLAICLLYVGQSAAAIGANVWLSAWTNDAMADSRQNNTSLRLGVYAALGILQGFLVMLAAMAMAAGGIQAARVLHQALLHNKIRSPQSFFDTTPSGRILNCFSKDIYVVDEVLAPVILMLLNSFFNAISTLVVIMASTPLFTVVILPLAVLYTLVQRFYAATSRQLKRLESVSRSPIYSHFSETVTGASVIRAYNRSRDFEIISDTKVDANQRSCYPYIISNRWLSIGVEFVGNCVVLFAALFAVIGRSSLNPGLVGLSVSYSLQVTFALNWMIRMMSDLESNIVAVERVKEYSKTETEAPWVVEGSRPPEGWPPRGEVEFRNYSVRYRPGLDLVLRDLSLHVHGGEKVGIVGRTGAGKSSMTLCLFRILEAAKGEIRIDGLNVADIGDPILFSGTLRMNLDPFGSYSEEDIWWALELSHLHTFVSSQPAGLDFQCSEGGENLSVGQRQLVCLARALLRKSRILVLDEATAAIDLETDNLIQATIRTQFDTCTVLTIAHRLNTIMDYTRVLVLDKGVVAEFDSPANLIAARGIFYGMARDAGLA
For B1, the Km [1] was 9.2 µM.

B2: ATP-binding cassette sub-family C member 2 (Homo sapiens) (protein)
chain: MLEKFCNSTFWNSSFLDSPEADLPLCFEQTVLVWIPLGYLWLLAPWQLLHVYKSRTKRSSTTKLYLAKQVFVGFLLILAAIELALVLTEDSGQATVPAVRYTNPSLYLGTWLLVLLIQYSRQWCVQKNSWFLSLFWILSILCGTFQFQTLIRTLLQGDNSNLAYSCLFFISYGFQILILIFSAFSENNESSNNPSSIASFLSSITYSWYDSIILKGYKRPLTLEDVWEVDEEMKTKTLVSKFETHMKRELQKARRALQRRQEKSSQQNSGARLPGLNKNQSQSQDALVLEDVEKKKKKSGTKKDVPKSWLMKALFKTFYMVLLKSFLLKLVNDIFTFVSPQLLKLLISFASDRDTYLWIGYLCAILLFTAALIQSFCLQCYFQLCFKLGVKVRTAIMASVYKKALTLSNLARKEYTVGETVNLMSVDAQKLMDVTNFMHMLWSSVLQIVLSIFFLWRELGPSVLAGVGVMVLVIPINAILSTKSKTIQVKNMKNKDKRLKIMNEILSGIKILKYFAWEPSFRDQVQNLRKKELKNLLAFSQLQCVVIFVFQLTPVLVSVVTFSVYVLVDSNNILDAQKAFTSITLFNILRFPLSMLPMMISSMLQASVSTERLEKYLGGDDLDTSAIRHDCNFDKAMQFSEASFTWEHDSEATVRDVNLDIMAGQLVAVIGPVGSGKSSLISAMLGEMENVHGHITIKGTTAYVPQQSWIQNGTIKDNILFGTEFNEKRYQQVLEACALLPDLEMLPGGDLAEIGEKGINLSGGQKQRISLARATYQNLDIYLLDDPLSAVDAHVGKHIFNKVLGPNGLLKGKTRLLVTHSMHFLPQVDEIVVLGNGTIVEKGSYSALLAKKGEFAKNLKTFLRHTGPEEEATVHDGSEEEDDDYGLISSVEEIPEDAASITMRRENSFRRTLSRSSRSNGRHLKSLRNSLKTRNVNSLKEDEELVKGQKLIKKEFIETGKVKFSIYLEYLQAIGLFSIFFIILAFVMNSVAFIGSNLWLSAWTSDSKIFNSTDYPASQRDMRVGVYGALGLAQGIFVFIAHFWSAFGFVHASNILHKQLLNNILRAPMRFFDTTPTGRIVNRFAGDISTVDDTLPQSLRSWITCFLGIISTLVMICMATPVFTIIVIPLGIIYVSVQMFYVSTSRQLRRLDSVTRSPIYSHFSETVSGLPVIRAFEHQQRFLKHNEVRIDTNQKCVFSWITSNRWLAIRLELVGNLTVFFSALMMVIYRDTLSGDTVGFVLSNALNITQTLNWLVRMTSEIETNIVAVERITEYTKVENEAPWVTDKRPPPDWPSKGKIQFNNYQVRYRPELDLVLRGITCDIGSMEKIGVVGRTGAGKSSLTNCLFRILEAAGGQIIIDGVDIASIGLHDLREKLTIIPQDPILFSGSLRMNLDPFNNYSDEEIWKALELAHLKSFVASLQLGLSHEVTEAGGNLSIGQRQLLCLGRALLRKSKILVLDEATAAVDLETDNLIQTTIQNEFAHCTVITIAHRLHTIMDSDKVMVLDNGKIIECGSPEELLQIPGPFYFMAKEAGIENVNSTKF
B2 was tested, and the Km [2] was 35.1 µM.

From ChEMBL document CHEMBL2074000, “Transport of ethinylestradiol glucuronide and ethinylestradiol sulfate by the multidrug resistance proteins MRP1, MRP2, and MRP3” (J Pharmacol Exp Ther, 2004)
